For one test, the target named is T1, human Nup358 (human, UniProt P49792 1-145).
T1 construct: The stainings were on whole NPCs of HeLa cells
T1 sequence (looked up): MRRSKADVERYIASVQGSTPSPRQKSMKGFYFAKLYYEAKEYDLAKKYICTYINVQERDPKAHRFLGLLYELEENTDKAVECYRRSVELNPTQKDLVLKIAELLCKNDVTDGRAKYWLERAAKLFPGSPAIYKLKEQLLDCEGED
In words: Table 1, target and cross-reactivity (immunofluorescence, Figure 1).

Test [1] has as its target T2, Xenopus Nup133 β-propeller (Xenopus).
T2 construct: domain: β-propeller; also called Xenopus Nup133 beta propeller; Xenopus propeller
In words: BLI (Octet Red96), biotinylated VHH on streptavidin sensors, 40 nM propeller in solution. (In BLI a coated tip is dipped into the sample, and binding shifts an interference pattern.)

Another test concerns the target T3, human Nup133 β-propeller (human, UniProt Q8WUM0 67-514, limits assumed).
T3 construct: domain: β-propeller; also called human Nup133 beta propeller; human propeller
T3 sequence (looked up): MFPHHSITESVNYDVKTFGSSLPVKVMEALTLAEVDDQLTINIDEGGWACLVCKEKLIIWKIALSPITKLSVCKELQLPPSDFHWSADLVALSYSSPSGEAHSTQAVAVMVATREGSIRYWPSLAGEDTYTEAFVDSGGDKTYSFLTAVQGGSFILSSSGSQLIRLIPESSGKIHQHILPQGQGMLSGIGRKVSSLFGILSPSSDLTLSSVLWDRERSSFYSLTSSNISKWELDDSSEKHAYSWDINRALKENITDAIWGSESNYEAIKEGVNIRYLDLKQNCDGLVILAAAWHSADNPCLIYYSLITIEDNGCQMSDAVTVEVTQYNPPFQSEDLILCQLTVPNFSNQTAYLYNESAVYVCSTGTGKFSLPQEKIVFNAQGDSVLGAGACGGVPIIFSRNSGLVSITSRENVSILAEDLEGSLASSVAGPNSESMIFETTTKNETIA
The test is described as above.

The target of test [2] is T4, human Nup133 in nuclear pore complexes of HeLa cells (human, UniProt Q8WUM0 1-1156).
T4 construct: whole, on cells; Endogenous protein inside permeabilized HeLa cells, as part of assembled NPCs; not on the cell surface; also called human NPCs
T4 sequence (looked up): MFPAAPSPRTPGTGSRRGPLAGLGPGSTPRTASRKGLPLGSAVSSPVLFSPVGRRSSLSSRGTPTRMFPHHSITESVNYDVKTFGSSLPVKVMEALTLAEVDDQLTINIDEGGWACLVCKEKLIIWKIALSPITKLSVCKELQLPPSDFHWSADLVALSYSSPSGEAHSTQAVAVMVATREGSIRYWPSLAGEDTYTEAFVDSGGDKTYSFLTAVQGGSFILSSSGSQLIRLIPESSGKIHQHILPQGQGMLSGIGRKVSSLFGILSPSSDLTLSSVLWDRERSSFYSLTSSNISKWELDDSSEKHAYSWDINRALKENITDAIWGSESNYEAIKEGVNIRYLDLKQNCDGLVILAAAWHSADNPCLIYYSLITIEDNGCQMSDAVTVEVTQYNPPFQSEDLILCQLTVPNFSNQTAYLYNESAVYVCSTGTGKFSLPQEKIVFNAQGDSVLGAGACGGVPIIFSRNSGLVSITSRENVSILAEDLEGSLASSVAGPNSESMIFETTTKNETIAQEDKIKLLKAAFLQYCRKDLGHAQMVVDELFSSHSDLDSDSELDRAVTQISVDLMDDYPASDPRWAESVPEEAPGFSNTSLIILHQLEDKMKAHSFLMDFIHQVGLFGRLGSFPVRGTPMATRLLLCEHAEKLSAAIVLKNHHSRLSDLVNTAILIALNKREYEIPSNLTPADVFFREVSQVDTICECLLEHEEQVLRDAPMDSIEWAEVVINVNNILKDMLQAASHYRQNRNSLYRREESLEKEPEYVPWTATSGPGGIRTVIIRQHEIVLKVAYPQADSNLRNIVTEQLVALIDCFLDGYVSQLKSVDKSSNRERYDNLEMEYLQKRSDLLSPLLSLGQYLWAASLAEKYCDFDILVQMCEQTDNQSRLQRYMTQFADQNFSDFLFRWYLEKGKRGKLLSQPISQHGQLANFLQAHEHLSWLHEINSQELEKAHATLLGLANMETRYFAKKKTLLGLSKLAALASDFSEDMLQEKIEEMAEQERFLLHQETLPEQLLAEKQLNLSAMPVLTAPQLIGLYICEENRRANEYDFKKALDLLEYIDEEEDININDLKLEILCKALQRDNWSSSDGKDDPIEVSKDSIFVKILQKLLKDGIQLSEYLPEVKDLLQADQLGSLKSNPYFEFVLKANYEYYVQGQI
Description: immunofluorescence of HeLa cells with fluorophore-labelled VHH (Figures 1 and 2).

B1: xhNup358-Nb2t (VHH)
VHH: QVQLVESGGGLVQPGGSLRLSCAASGRPLSDYAMGWFRQAPGKEREFVAAISWKGGETFYAGSVKGRFTISRDDAKNSLYLQMNNLKLEDTAEYSCAAVLGSPHYSGTHYYPAEYDYWGQGTQVTVSS
notes: For staining the VHHs carried two ectopic cysteines (N- and C-termini) labelled with fluorophore maleimide
In the case of B1, the binding result with human Nup358 was “binds”.

B2: KG1D08, biotinylated, reduced form (structural cysteines not disulfide-bonded) (VHH)
VHH: QVQLVESGGGLVQAGGSLRLSCAASGRSFRGNIMAWFRQTPGKERLFVASITGSGYTSYENSVKGRFTISRDSARDTVDLQMTTLAPEDTAVYYCAGRFRGGHNRMPDAYEYWGQGTQVTVSS
modifications: Biotin-PEG11-maleimide on the two additional cysteines at N- and C-terminus; structural cysteines reduced ; Two additional ectopic cysteines at the N- and C-terminus, not in the letters, each carry Biotin-PEG11-maleimide. Struct [CUT]
notes: Expressed in the cytoplasm of E. coli NEB Express; also called reduced KG1D08; not shown: The short N- and C-terminal extensions that carry the two ectopic, biotinylated cysteines
As usually defined, the Kd is the equilibrium constant for the complex coming apart. A higher Kd goes with weaker binding. Take B2: the Kd in test [1] is less than 0.01 nM; with human Nup133 β-propeller, approximately 2 nM.

B3: KG1D08, biotinylated, post-production disulfide-bridged form (VHH)
VHH: QVQLVESGGGLVQAGGSLRLSCAASGRSFRGNIMAWFRQTPGKERLFVASITGSGYTSYENSVKGRFTISRDSARDTVDLQMTTLAPEDTAVYYCAGRFRGGHNRMPDAYEYWGQGTQVTVSS
modifications: Biotin-PEG11-maleimide on the two additional cysteines at N- and C-terminus; structural cysteines quantitatively oxidized to the intramolecular disulfide bond ; Two additional ectopic cysteines at the N- and C-terminus, not in the letters, each carry Biotin-PEG11-maleimide. Struct [CUT]
notes: Same preparation as the reduced form, then treated with 2 mM GSSG and 1.5 µM each DsbA, DsbC, DsbG for 5 minutes at 52°C (45 minutes heat up); also called KG1D08 with post-production disulfide-bonding; disulfide-stabilized VHH; not shown: The short N- and C-terminal extensions that carry the two ectopic, biotinylated cysteines
As for B3, the Kd is less than 0.01 nM in test [1] and approximately 2 nM in the test with human Nup133 β-propeller.

B4: KG1D08 (VHH)
VHH: QVQLVESGGGLVQAGGSLRLSCAASGRSFRGNIMAWFRQTPGKERLFVASITGSGYTSYENSVKGRFTISRDSARDTVDLQMTTLAPEDTAVYYCAGRFRGGHNRMPDAYEYWGQGTQVTVSS
notes: also called anti-Nup133 VHH KG1D08
As for B4, the binding result in test [2] is listed as “binds”.
